Data: patent publication US20150247163

Legend:
[1] = molecular target: T1, PBS1^RCS2-HA (PBS1 in which the AvrPphB cleavage site GDKSHVS is replaced with the RIN4 cleavage site 2 VPKFGDW, fused to a C-terminal 3xHA epitope)
T1 chain: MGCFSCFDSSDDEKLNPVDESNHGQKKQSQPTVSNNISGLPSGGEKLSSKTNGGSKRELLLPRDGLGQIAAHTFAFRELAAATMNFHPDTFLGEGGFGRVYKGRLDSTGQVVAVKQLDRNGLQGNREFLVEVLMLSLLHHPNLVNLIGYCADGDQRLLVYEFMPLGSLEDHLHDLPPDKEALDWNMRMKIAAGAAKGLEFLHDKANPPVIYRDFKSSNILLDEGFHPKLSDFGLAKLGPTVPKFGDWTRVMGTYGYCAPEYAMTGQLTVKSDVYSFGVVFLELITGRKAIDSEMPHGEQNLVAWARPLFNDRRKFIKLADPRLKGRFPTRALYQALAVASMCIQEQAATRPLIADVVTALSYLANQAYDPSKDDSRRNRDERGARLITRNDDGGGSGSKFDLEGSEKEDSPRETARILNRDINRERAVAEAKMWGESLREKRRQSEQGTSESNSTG

[2] = molecular target: T2, PBS1^TCS-HA (PBS1 in which the seven amino acids flanking the AvrPphB cleavage site are replaced with a TEV cleavage site, fused to 3xHA)
T2 chain: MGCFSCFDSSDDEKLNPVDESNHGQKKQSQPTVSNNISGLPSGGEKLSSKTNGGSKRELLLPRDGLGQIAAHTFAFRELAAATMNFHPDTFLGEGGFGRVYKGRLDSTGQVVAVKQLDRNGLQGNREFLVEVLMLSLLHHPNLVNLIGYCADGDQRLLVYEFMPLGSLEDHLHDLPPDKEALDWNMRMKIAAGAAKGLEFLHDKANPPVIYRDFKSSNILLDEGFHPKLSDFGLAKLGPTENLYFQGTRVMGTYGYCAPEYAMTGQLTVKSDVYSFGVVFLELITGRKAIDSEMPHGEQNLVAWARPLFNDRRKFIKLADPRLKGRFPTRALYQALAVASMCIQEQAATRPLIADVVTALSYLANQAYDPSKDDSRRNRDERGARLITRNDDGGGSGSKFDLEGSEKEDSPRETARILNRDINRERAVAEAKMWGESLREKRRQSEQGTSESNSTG

[3] = molecular target: T3, wild-type PBS1 (AvrPphB susceptible 1), Q9FE20
T3 chain: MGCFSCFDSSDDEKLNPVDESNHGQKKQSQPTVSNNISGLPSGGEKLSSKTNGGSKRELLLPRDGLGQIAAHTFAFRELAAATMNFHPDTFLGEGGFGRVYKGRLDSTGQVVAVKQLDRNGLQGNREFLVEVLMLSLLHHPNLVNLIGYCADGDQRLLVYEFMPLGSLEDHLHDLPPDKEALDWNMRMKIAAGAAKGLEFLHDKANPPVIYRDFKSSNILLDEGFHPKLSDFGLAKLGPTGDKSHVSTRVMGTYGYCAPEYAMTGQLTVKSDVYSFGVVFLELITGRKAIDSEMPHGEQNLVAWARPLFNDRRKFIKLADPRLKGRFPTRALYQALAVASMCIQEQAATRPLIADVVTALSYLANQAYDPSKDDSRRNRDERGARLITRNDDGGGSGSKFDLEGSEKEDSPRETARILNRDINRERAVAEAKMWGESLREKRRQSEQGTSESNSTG

B1: AvrRpt2 (Example 1 pTA7002 construct; also as delivered by P. syringae DC3000(avrRpt2)) (protein)
chain: MKIAPVAINHSPLSREVPSHAAPTQAKQTNLQSEAGDLDARKSSASSPETRALLATKTVLGRHKIEVPAFGGWFKKKSSKHETGGSSANADSSSVASDSTEKPLFRLTHVPYVSQGNERMGCWYACARMVGHSVEAGPRLGLPELYEGREGPAGLQDFSDVERFIHNEGLTRVDLPDNERFTHEELGALLYKHGPIIFGWKTPNDSWHMSVLTGVDKETSSITFHDPRQGPDLAMPLDYFNQRLAWQVPHAMLYR
- cleavage product by anti-HA immunoprecipitation and immunoblot, transgenic Arabidopsis line #5, 12 hours after inoculation [1]: a cleavage product of PBS1^RCS2 was detected in transgenic line #5 twelve hours after inoculation with DC3000(avrRpt2), but not with DC3000 lacking avrRpt2

B2: C122A (protease-deficient mutant form of AvrRpt2) fused to 5xMyc (protein)
chain: MKIAPVAINHSPLSREVPSHAAPTQAKQTNLQSEAGDLDARKSSASSPETRALLATKTVLGRHKIEVPAFGGWFKKKSSKHETGGSSANADSSSVASDSTEKPLFRLTHVPYVSQGNERMGAWYACARMVGHSVEAGPRLGLPELYEGREGPAGLQDFSDVERFIHNEGLTRVDLPDNERFTHEELGALLYKHGPIIFGWKTPNDSWHMSVLTGVDKETSSITFHDPRQGPDLAMPLDYFNQRLAWQVPHAMLYR
- cleavage by immunoblot, 24 hours post-induction [1]: even C122A induced small amounts of cleavage

B3: AvrRpt2 fused to 5xMyc (Example 5 construct) (protein)
chain: MKIAPVAINHSPLSREVPSHAAPTQAKQTNLQSEAGDLDARKSSASSPETRALLATKTVLGRHKIEVPAFGGWFKKKSSKHETGGSSANADSSSVASDSTEKPLFRLTHVPYVSQGNERMGCWYACARMVGHSVEAGPRLGLPELYEGREGPAGLQDFSDVERFIHNEGLTRVDLPDNERFTHEELGALLYKHGPIIFGWKTPNDSWHMSVLTGVDKETSSITFHDPRQGPDLAMPLDYFNQRLAWQVPHAMLYR
- cleavage by immunoblot, 6 hours post-induction [1]: AvrRpt2 cleaved PBS1^RCS2 at 6 hours post-induction
- cleavage by immunoblot, 24 hours post-induction [1]: At 24 hours post-induction, AvrRpt2-induced cleavage was increased

B4: TEV protease (NIa protease of Tobacco Etch Virus) fused to 5xMyc (protein)
chain: GESLFKGPRDYNPISSTICHLTNESDGHTTSLYGIGFGPFIITNKHLFRRNNGTLLVQSLHGVFKVKNTTTLQQHLIDGRDMIIIRMPKDFPPFPQKLKFREPQREERICLVTTNFQTKSMSSMVSDTSCTFPSSDGIFWKHWIQTKDGQCGSPLVSTRDGFIVGIHSASNFTNTNNYFTSVPKNFMELLTNQEAQQWVSGWRLNADSVLWGGHKVFMSKPEEPFQPVKEATQLMNELVYSQ
- cleavage by immunoblot, 6 hours post induction [2]: TEV protease cleaved PBS1^TCS 6 hours post induction
- cleavage by immunoblot [3]: TEV protease did not cleave wild-type PBS1
